Measurements: the DeepSol protein solubility set

Experiment: soluble on expression in E. coli; label from the status in PepcDB or PDB records

| Sequence | soluble on expression in E. coli |
| --- | --- |
| MSLNPRPGKVVIYSEPDVSEKCIEVFSDIQDCSSWSLSPVILIKVVRGCWILYEQPNFEGHSIPLEEGELELSGLWGIEDILERHEEAESDKPVVIGSIRHVVQDYRVSHIDLFTEPEGLGILSSYFDDTEEMQGFGVMQKTCSMKVHWGTWLIYEEPGFQGVPFILEPGEYPDLSFWDTEAAYIGSMRPLKMGGRKVEFPTDPKVVVYEKPFFEGKCVELETGMCSFVMEGGETEEATGDDHLPFTSVGSMKVLRGIWVAYEKPGFTGHQYLLEEGEYRDWKAWGGYNGELQSLRPILGDFSNAHMIMYSEKNFGSKGSSIDVLGIVANLKETGYGVKTQSINVLSGVWVAYENPDFTGEQYILDKGFYTSFEDWGGKNCKISSVQPICLDSFTGPRRRNQIHLFSEPQFQGHSQSFEETTSQIDDSFSTKSCRVSGGSWVVYDGENFTGNQYVLEEGHYPCLSAMGCPPGATFKSLRFIDVEFSEPTIILFEREDFKGKKIELNAETVNLRSLGFNTQIRSVQVIGGIWVTYEYGSYRGRQFLLSPAEVPNWYEFSGCRQIGSLRPFVQKRIYFRLRNKATGLFMSTNGNLEDLKLLRIQVMEDVGADDQIWIYQEGCIKCRIAEDCCLTIVGSLVTSGSKLGLALDQNADSQFWSLKSDGRIYSKLKPNLVLDIKGGTQYDQNHIILNTVSKEKFTQVWEAMVLYTEGHHHHHH | not soluble |
| GPGSMAIEVATSTRLQYARMLRSMLEMDRTPLDMMILGFQKIAARSETRQTRQARPVTEEEMNEYIRSRTDWKERVVVRLAWMTASRWSEIAALNPNNFKLKPDGALILDWPVVPKTARADPHRAFRFVRIRGQDAFDIIKLCRTLQENEKLTNITNAQVERALAPWDATAHSIERGALRHAAQIVEKYNLDPHVISQLAKHVNPFDLPQNTV | soluble |
| GMDISLLKQVVQSTNKIALSTAVNNEADVKIVNFVWYEAQPDTLYFSSVKTSPALKVYDQNPDIAFITIPNDGTAGNPYLRAQHVKLQRSTKTMTDLLPQYLETVPNYQQVWDAIGSTLVVFELKLTDLFVDAGVGGEKQTLTFN | soluble |
| VETISFSFSEFEPGNNDLTLQGAAIITQSGVLQLTKINQNGMPAWDSTGRTLYTKPVHIWDMTTGTVASFETRFSFSIEQPYTRPLPADGLVFFMGPTKSKPAQGYGYLGVFNNSKQDNSYQTLAVEFDTFSNPWDPPQVPHIGIDVNSIRSIKTQPFQLDNGQVANVVIKYDASSKILLAVLVYPSSGAIYTIAEIVDVKQVLPEWVDVGLSGATGAQRDAAETHDVYSWSFHASLPETND | soluble |
| ISEFGSMNVILSIDQSTQSTKVFFYDEELNIVHSNNLNHEQKCLKPGWYEHDPIEIMTNLYNLMNEGIKVLKDKYTSVIIKCIGITNQRETVIIWDRITGKPLYNAIVWLDTRVEELVTEFSAKYNNNDIQKKTGTYFNTYFSAFKILWLIQNNPEIKQKIDDGTAVIGNINTWLIFNLTKGNCYTDVTNASRTLLMDINTLQWDEKMCKIFNITNMSVLPEIKSNCSNFGLVKSEHVPDYLNIPITGCIGDQQSACIGQAIFDEGEAKCTYGTGVFLLINTGEKVVYSTCGLITTICYKFNDNDKPKYALEGSIGTAGSGVSWLLKNKLIDDPSEASDIMEKCENTTGVIFVPAFSGLYAPRWRSDARASIYGMTFNTERSHIVRALLEGIAFQLNEIVDSLTSDMGIEMLHVLRCDGGMTKNKPFMQFNSDIINTKIEVSKYKEVTSLGAAVLAGLEVKIWDSLDSVKSLLRRSDAVFHSKMDDKKRKKKTSEWNKAVERTLIQL | soluble |
| MKMKTDDTFNHAHADRLLLPNASLLGEVENMLADGRSVMLKATGNSMLPFIVGGRDSVLVRRPSGIQALQVWQIALAHLPDSRYVLHRIVRIHGAEIVLMGDGNLKETESCRFPDITGVVTRIIRNGRYVDCDAGGERCKAKIWGRLLPIRRYLLYIYRRVWI | not soluble |
| MGSDKIHHHHHHMDLFSASFNPHQIAPLAERMRPRTLDDYIGQSEIIGKGKLLRRAIEADRVTSLILYGPPGTGKTSLAQVIANTTSSGFVRINAVAAGVKEIREIIQTATEQLHLYGKKTLVFCDEVHRFNKGQQDALLPAVENGTITFIGATTENPFFELNSALLSRSTLFRLQPLTAEDIRSGLAQALADKERGLGNYSVSIDPEAWEHWLNFANGDLRRALNALELAVLTTPPEQGVRRITLSVAEESIQQRAMRFDKNGDNHYDIVSAFIKSMRGSDPDAALYWLAVLLESGEDPRFIVRRIIVHASEDVGLADPMVMLQAHAAANALEWVGLPEARIPIAQAVLAIATAPKSNSTIMAIDRATGYVRSHPTGQVPAHLRDANYPGAKKMGHGKNYLYPHDYPGHWVEQGYLPQEVQGENFFTPSGTGQDRDNRGKPQVIPPSE | not soluble |
| MGSDKIHHHHHHMLQPHEMHLAGDLLDFLRDPSTAIARDFATQATLMRIASGATVFAEGDECSFFAILADGQIRVFKIGETGREITLYRFGRGESCILTTSCVLSNHQFPAIAVVEREATAFLVGQAIFRDWIERYSAWRDYVFQLLSRRLASVMAIIDEIAFRRVDVRLAAFLLRQAVGDPPTLNLTHQQIAAELGTSREVVSRILADFSEEGLISSSRGQITVCDRTRLYQRSEAR | not soluble |
| MLRIAKEALTFDDVLLVPAHSTVLPNTADLSTQLTKTIRLNIPMLSAAMDTVTEARLAIALAQEGGIGFIHKNMSIERQAEEVRRVKKHESGVVTDPQTVLPTTTLHEVKALTERNGFAGYPVVTEDNELVGIITGRDVRFVTDLNQPVSVYMTPKERLVTVREGEAREVVLAKMHEKRVEKALVVDDNFHLLGMITVKDFQKAERKPNSCKDEQGRLRVGAAVGAGAGNEERVDALVAAGVDVLLIDSSHGHSEGVLQRIRETRAKYPDLQIIGGNVATGAGARALAEAGCSAVKVGIGPGSICTTRIVTGVGVPQITAVSDAVEALEGTGIPVIADGGIRFSGDIAKAIAAGASAVMVGSMLAGTEESPGEIELYQGRSYKSYRGMGSLGAMSKGSSDRYFQSDNAADKLVPEGIEGRVAYKGRLKEIIHQQMGGLRSCMGLTGCATIDELRTKAEFVRISGAGIQESHVHDVTITKESPNYRLGS | not soluble |
| VTRPRPPLGPAMAGAVDLSGIKQRAQQNAAASTDADRALSTPSGVTEITEANFEDEVIVRSDEVPVVVLLWSPRSEVCVDLLDTLSGLAAAAKGKWSLASVNVDVAPRVAQIFGVQAVPTVVALAAGQPISSFQGLQPADQLSRWVDSLLSATAGKLKGAASSEESTEVDPAVAQARQQLEDGDFVAARKSYQAILDANPGSVEAKAAIRQIEFLIRATAQRPDAVSVADSLSDDIDAAFAAADVQVLNQDVSAAFERLIALVRRTSGEERTRVRTRLIELFELFDPADPEVVAGRRNLANALY | not soluble |
| MCRLLGFATAGSNTNLNGVLGMQNVRDFRNLSEIHNDGWGAALITVPDESPYRRDGGAPTPETGTAIYKNTIAARHDPIFDELANTPARGGLWHLRLASSNLPLILENQQPFYANGLSFIHNGDISDDQGRNIITNRAFPVDPSIVQSTGGRSDSAIFFAVILQYIGFGFALDEAVAQAVRELRKSYPKSSYNCMIQSQDQFIALCAAGREVTSKRIVEIYDQYGRGEQARDYRVLRYRALGGNDDQSKGVVVASSGFDQRAEDGWTRLENDQMIVASNRTGEFRVRSI | soluble |
| MSQFISLTQYQLIEVQGADAEKYLQGQLTSDVVRLASGATTLTAHCDPKGKMNAIYRLFKVSSEQFFLLVKKDILPSGLDALKKYAVFSKVSFDLRDWQIIGVIGEKCGKITPNFSLEIDEKRSILLNETELPVNFNGDEKIWEVADIQAGLPNLSPQTQNEFIPQALNLQAIEQAISFTKGCYIGQETVARAKYRGANKRAMFIFKVQTQQEAEIGSEIEMQLEANWRKTGTITSAVNLDGVLWLQVVMNNDIDSEQQFRLLNSEILLERVQLPYSITE | not soluble |
| MGHHHHHHGGHMSLSPVLTQHVSQPITLDEQTQKMKRHLLQDIRRSAYVYRVDCGGCNACEIEIFAAITPVFDAERFGIKVVSSPRHADILLFTGAVTRAMRMPALRAYESAPDHKICVSYGACGVGGGIFHDLYSVWGGSDTIVPIDVWIPGCPPTPAATIHGFAVALGLLQQKIHAVDYRDPTGVTMQPLWPQIPPSQRIAIEREARRLAGYRQGREICDRLLRHLSDDPTGNRVNTWLRDADDPRLNSIVQQLFRVLRGLHDEGGS | soluble |
| MDDPASYELDPSIAQRVKFNSAGLVPAVVQSTDGEVLMLAWMDAHALAYTIATRKGTYFSRSRNEYWIKGLTSGHTQQVTGLQLDCDGDTVLMTVVQQGGACHTGDRTCFDADVII | not soluble |
| MNVAAILLAAGKSQRMGLCKQLLQLADRPAVAHCLDTLTAVGLQEIIVVVSPGGDEVAAAVSRYPVVVAVNESDSCDMADSARTGLARLISDPTGVLVALADHPLVRPDTVRALVNRHGEEPDAILIPVHDGAKGHPTLFPAAILQEIGQVATLRDIIGRHRDKVRLVPVADEGVVMDMDVWEDYLAMAERLNPPGLEHHHHHH | soluble |
| MGHHHHHHSHMKQWKEKKKKKKPIQEPEVPQIDVPNLKPIFGIPLADAVERTMMYDGIRLPAVFRECIDYVEKYGMKCEGIYRVSGIKSKVDELKAAYDREESTNLEDYEPNTVASLLKQYLRDLPENLLTKELMPRFEEACGRTTETEKVQEFQRLLKELPECNYLLISWLIVHMDHVIAKELETKMNIQNISIVLSPTVQISNRVLYVFFTHVQELFGNVVLKQVMKPLRWSNMATMPTLPETQAGIKEE | soluble |
| MAHHHHHHMRPTFPALGSRAKGYENRVMVYAHRRHRAWYLPPKLAHARSPLANKSPDEYGNTWDPRTGVEWYHRLRRRGAYRHWPWARWNDDPVRQHQELSCRRTFSAAVTGANEGVPLWNYYAEVGQEYGLPSHFPLSFMAPFIHQYTSRAWSRKEIERHLKVVEERTGLRTIQQACDATSELLEWGEEEMGVVPHGLLQHVVMLAEDIVLQNKKKAYRKAAHERGILRTTTMERYYALPHLRTGPPMPTTLEQPSGEFPWGKFSTMVGGTRIHPLYRPDGFFKDNMYPA | not soluble |
| MKLPVVESFFSLQGEGKRIGKPSLFLRLGGCNLSCKGFNCKTLLNDEILTGCDSLYAVHPKFKTSWDYYNEPKPLIERLEDLAPNYKDFDFILTGGEPSLYFNNPILISVLEHFYRQKIPLCVESNGSIFFEFSPILKELHFTLSVKLSFSLEEESKRIHLKALQNILNNAKSAHFKFVLESQNAAQSIIEIQSLLKQLSLKNNEIFLMPLGTNNNELDKNLKTLAPLAIKHGFRLSDRLHIRLWDNQKGF | not soluble |
| SGRPFVEMYSEIPEIIHMTEGRELVIPCRVTSPNITVTLKKFPLDTLIPDGKRIIWDSRKGFIISNATYKEIGLLTCEATVNGHLYKTNYLTHRQTNTIIDVQISTPRPVKLLRGHTLVLNCTATTPLNTRVQMTWSYPDEKNKRASVRRRIDQSNSHANIFYSVLTIDKMQNKDKGLYTCRVRSGPSFKSVNTSVHIYDKAFITVKHR | soluble |
| MSLPKIIPAIMAGGRGTRLWPLSRATAAKQFLKLIGEETLFQDTLKRVSDAKVYGAPLVITNEEFRFLVAEQARELGVTLSSIVLEPVPRNTAAAVAVAARIVADRFGEDALLLVLPSDHAITVDDTYKKCVRSACIAAAEGKLVTFGIQPTWPATGYGYIERGTYLGKDVHAVQCFVEKPSLEKAAALLETGNYYWNSGMFLFQAASIIAELEEHAPDVLSAVHAAVRGSTVDADFIRLAPESFSQAPSISIDYALMEKTANAAVVCSDFAWSDLGSWDAVWKNEEQNADGNVLKGNVTACNTKNSLVLSHTAHLAVQGMDGVAVIASEDAVFVGRLEEAHEIGNLVKRLAADENTARLTELHPTLIRPWGGYTTMLNGDRFQVRRLFVRPGKMLSLHKHFHRSEHWICVKGTAEVTIEDRVTILHENQSIYIPEGAIHRLGNPGKIMLELVEIQTGAYLGEDDIIRVADESRNEMPDSREGHHHHHH | not soluble |
